From patent US20260001928A1 (CORTERIA PHARMACEUTICALS, priority 2022, published 2026)
One block for each binder: values may come before it. *1 amine or outer side, *2 acyl side, *3 side chain or, on linkers, in order; H or OH if unused. Side-chain parts run from the residue outwards. [ ]: non-standard residue; d: D form. The star is where a group is joined. C16 diacid = O=C(O)CCCCCCCCCCCCCCC(=O)*; γGlu = O=C(O)[C@H](CCC(=O)[*:2])N[*:1]; Pentanoyl = CCCCC(=O)*; Aib = CC(C)(N)C(=O)O

Assays:
[1] = target: human corticotropin-releasing factor 2a (CRF2a receptor) (human), Q13324; experiment: cell-based or functional assay
CRF1R receptor = target: T1, CRF1R receptor (UniProt P34998 24-415, limits assumed); experiment: cell-based or functional assay
T1 sequence (looked up): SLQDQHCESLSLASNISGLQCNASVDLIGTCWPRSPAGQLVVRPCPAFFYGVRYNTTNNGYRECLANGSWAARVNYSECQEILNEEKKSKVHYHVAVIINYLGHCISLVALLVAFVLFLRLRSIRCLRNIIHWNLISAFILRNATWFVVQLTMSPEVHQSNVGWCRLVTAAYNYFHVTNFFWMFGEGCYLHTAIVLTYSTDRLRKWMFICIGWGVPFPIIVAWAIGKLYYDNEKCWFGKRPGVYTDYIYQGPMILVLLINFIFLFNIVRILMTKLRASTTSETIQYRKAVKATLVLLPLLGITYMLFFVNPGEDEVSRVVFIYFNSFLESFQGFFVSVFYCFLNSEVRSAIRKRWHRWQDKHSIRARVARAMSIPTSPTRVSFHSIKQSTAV

human corticotropin-releasing factor 2a (CRF2a receptor) (human), Q13324, sequence (Q13324 20-411): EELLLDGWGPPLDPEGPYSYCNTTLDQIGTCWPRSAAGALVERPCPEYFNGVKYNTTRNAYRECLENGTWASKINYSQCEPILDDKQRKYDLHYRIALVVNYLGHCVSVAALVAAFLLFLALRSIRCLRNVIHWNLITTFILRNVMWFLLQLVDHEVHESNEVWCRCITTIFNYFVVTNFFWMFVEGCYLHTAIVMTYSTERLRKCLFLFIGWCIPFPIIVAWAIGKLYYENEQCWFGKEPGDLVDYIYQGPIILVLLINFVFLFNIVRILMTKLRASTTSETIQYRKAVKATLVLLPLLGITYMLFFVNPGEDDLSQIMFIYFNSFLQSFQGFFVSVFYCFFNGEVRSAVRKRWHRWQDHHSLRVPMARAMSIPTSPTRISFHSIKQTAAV

B3: SEQ ID NO 8 (peptide)
peptide: Pentanoyl-VLSLD[dV]PIKLK([γGlu-C16 diacid])QILLKQERQKKQREQAEKNKQILEQV-NH2
SMILES: CCCCC(=O)N[C@H](C(=O)N[C@@H](CC(C)C)C(=O)N[C@@H](CO)C(=O)N[C@@H](CC(C)C)C(=O)N[C@@H](CC(=O)O)C(=O)N[C@@H](C(=O)N1CCC[C@H]1C(=O)N[C@H](C(=O)N[C@@H](CCCCN)C(=O)N[C@@H](CC(C)C)C(=O)N[C@@H](CCCCNC(=O)CC[C@H](NC(=O)CCCCCCCCCCCCCCC(=O)O)C(=O)O)C(=O)N[C@@H](CCC(N)=O)C(=O)N[C@H](C(=O)N[C@@H](CC(C)C)C(=O)N[C@@H](CC(C)C)C(=O)N[C@@H](CCCCN)C(=O)N[C@@H](CCC(N)=O)C(=O)N[C@@H](CCC(=O)O)C(=O)N[C@@H](CCCNC(=N)N)C(=O)N[C@@H](CCC(N)=O)C(=O)N[C@@H](CCCCN)C(=O)N[C@@H](CCCCN)C(=O)N[C@@H](CCC(N)=O)C(=O)N[C@@H](CCCNC(=N)N)C(=O)N[C@@H](CCC(=O)O)C(=O)N[C@@H](CCC(N)=O)C(=O)N[C@@H](C)C(=O)N[C@@H](CCC(=O)O)C(=O)N[C@@H](CCCCN)C(=O)N[C@@H](CC(N)=O)C(=O)N[C@@H](CCCCN)C(=O)N[C@@H](CCC(N)=O)C(=O)N[C@H](C(=O)N[C@@H](CC(C)C)C(=O)N[C@@H](CCC(=O)O)C(=O)N[C@@H](CCC(N)=O)C(=O)N[C@H](C(N)=O)C(C)C)[C@@H](C)CC)[C@@H](C)CC)[C@@H](C)CC)C(C)C)C(C)C
- EC50 [nM] (cAMP) [1]: 0.14 nM
- EC50 (CRF1R receptor): 186 nM
- Emax (% I) (CRF1R receptor): 50%

B4: SEQ ID NO 163 (peptide)
peptide: Ac-IVLSLD[dV]PIALK([γGlu-C16 diacid])KILLEQEKQKKQREQAETN[Aib]QILAQV-NH2
SMILES: CC[C@H](C)[C@H](NC(C)=O)C(=O)N[C@H](C(=O)N[C@@H](CC(C)C)C(=O)N[C@@H](CO)C(=O)N[C@@H](CC(C)C)C(=O)N[C@@H](CC(=O)O)C(=O)N[C@@H](C(=O)N1CCC[C@H]1C(=O)N[C@H](C(=O)N[C@@H](C)C(=O)N[C@@H](CC(C)C)C(=O)N[C@@H](CCCCNC(=O)CC[C@H](NC(=O)CCCCCCCCCCCCCCC(=O)O)C(=O)O)C(=O)N[C@@H](CCCCN)C(=O)N[C@H](C(=O)N[C@@H](CC(C)C)C(=O)N[C@@H](CC(C)C)C(=O)N[C@@H](CCC(=O)O)C(=O)N[C@@H](CCC(N)=O)C(=O)N[C@@H](CCC(=O)O)C(=O)N[C@@H](CCCCN)C(=O)N[C@@H](CCC(N)=O)C(=O)N[C@@H](CCCCN)C(=O)N[C@@H](CCCCN)C(=O)N[C@@H](CCC(N)=O)C(=O)N[C@@H](CCCNC(=N)N)C(=O)N[C@@H](CCC(=O)O)C(=O)N[C@@H](CCC(N)=O)C(=O)N[C@@H](C)C(=O)N[C@@H](CCC(=O)O)C(=O)N[C@H](C(=O)N[C@@H](CC(N)=O)C(=O)NC(C)(C)C(=O)N[C@@H](CCC(N)=O)C(=O)N[C@H](C(=O)N[C@@H](CC(C)C)C(=O)N[C@@H](C)C(=O)N[C@@H](CCC(N)=O)C(=O)N[C@H](C(N)=O)C(C)C)[C@@H](C)CC)[C@@H](C)O)[C@@H](C)CC)[C@@H](C)CC)C(C)C)C(C)C
- EC50 [nM] (cAMP) [1]: 0.3 nM
- EC50 (CRF1R receptor): 190 nM
- Emax (% I) (CRF1R receptor): 53%

Second part, the binder after the results:

- EC50 [nM] (cAMP) [1]: 2.43 nM
- Emax (% I) (CRF1R receptor): 14%
B1: SEQ ID NO 164 (peptide)
peptide: Ac-IVLSLD[dV]PIKLK([γGlu-C16 diacid])AILLEQEKQKKQREQAETN[Aib]QILAQV-NH2
SMILES: CC[C@H](C)[C@H](NC(C)=O)C(=O)N[C@H](C(=O)N[C@@H](CC(C)C)C(=O)N[C@@H](CO)C(=O)N[C@@H](CC(C)C)C(=O)N[C@@H](CC(=O)O)C(=O)N[C@@H](C(=O)N1CCC[C@H]1C(=O)N[C@H](C(=O)N[C@@H](CCCCN)C(=O)N[C@@H](CC(C)C)C(=O)N[C@@H](CCCCNC(=O)CC[C@H](NC(=O)CCCCCCCCCCCCCCC(=O)O)C(=O)O)C(=O)N[C@@H](C)C(=O)N[C@H](C(=O)N[C@@H](CC(C)C)C(=O)N[C@@H](CC(C)C)C(=O)N[C@@H](CCC(=O)O)C(=O)N[C@@H](CCC(N)=O)C(=O)N[C@@H](CCC(=O)O)C(=O)N[C@@H](CCCCN)C(=O)N[C@@H](CCC(N)=O)C(=O)N[C@@H](CCCCN)C(=O)N[C@@H](CCCCN)C(=O)N[C@@H](CCC(N)=O)C(=O)N[C@@H](CCCNC(=N)N)C(=O)N[C@@H](CCC(=O)O)C(=O)N[C@@H](CCC(N)=O)C(=O)N[C@@H](C)C(=O)N[C@@H](CCC(=O)O)C(=O)N[C@H](C(=O)N[C@@H](CC(N)=O)C(=O)NC(C)(C)C(=O)N[C@@H](CCC(N)=O)C(=O)N[C@H](C(=O)N[C@@H](CC(C)C)C(=O)N[C@@H](C)C(=O)N[C@@H](CCC(N)=O)C(=O)N[C@H](C(N)=O)C(C)C)[C@@H](C)CC)[C@@H](C)O)[C@@H](C)CC)[C@@H](C)CC)C(C)C)C(C)C

- EC50 [nM] (cAMP) [1]: 0.64 nM
- Emax (% I) (CRF1R receptor): 14%
B2: SEQ ID NO 165 (peptide)
peptide: Ac-IVLSLD[dV]PIKLK([γGlu-C16 diacid])KILLEQEAQKKQREQAETN[Aib]QILAQV-NH2
SMILES: CC[C@H](C)[C@H](NC(C)=O)C(=O)N[C@H](C(=O)N[C@@H](CC(C)C)C(=O)N[C@@H](CO)C(=O)N[C@@H](CC(C)C)C(=O)N[C@@H](CC(=O)O)C(=O)N[C@@H](C(=O)N1CCC[C@H]1C(=O)N[C@H](C(=O)N[C@@H](CCCCN)C(=O)N[C@@H](CC(C)C)C(=O)N[C@@H](CCCCNC(=O)CC[C@H](NC(=O)CCCCCCCCCCCCCCC(=O)O)C(=O)O)C(=O)N[C@@H](CCCCN)C(=O)N[C@H](C(=O)N[C@@H](CC(C)C)C(=O)N[C@@H](CC(C)C)C(=O)N[C@@H](CCC(=O)O)C(=O)N[C@@H](CCC(N)=O)C(=O)N[C@@H](CCC(=O)O)C(=O)N[C@@H](C)C(=O)N[C@@H](CCC(N)=O)C(=O)N[C@@H](CCCCN)C(=O)N[C@@H](CCCCN)C(=O)N[C@@H](CCC(N)=O)C(=O)N[C@@H](CCCNC(=N)N)C(=O)N[C@@H](CCC(=O)O)C(=O)N[C@@H](CCC(N)=O)C(=O)N[C@@H](C)C(=O)N[C@@H](CCC(=O)O)C(=O)N[C@H](C(=O)N[C@@H](CC(N)=O)C(=O)NC(C)(C)C(=O)N[C@@H](CCC(N)=O)C(=O)N[C@H](C(=O)N[C@@H](CC(C)C)C(=O)N[C@@H](C)C(=O)N[C@@H](CCC(N)=O)C(=O)N[C@H](C(N)=O)C(C)C)[C@@H](C)CC)[C@@H](C)O)[C@@H](C)CC)[C@@H](C)CC)C(C)C)C(C)C
